Measurements: patent US20220235123A1 (UNIVERSITY OF TORONTO, published 2022)

T1: recombinant human vascular endothelial growth factor (hVEGF) 121 (human, UniProt P15692 27-147)
T1 construct: mature; also called human VEGF-A121; hVEGF 121 isoform
T1 sequence (looked up): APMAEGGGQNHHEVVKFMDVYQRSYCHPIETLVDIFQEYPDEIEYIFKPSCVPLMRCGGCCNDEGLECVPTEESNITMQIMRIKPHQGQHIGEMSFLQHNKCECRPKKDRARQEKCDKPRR


What was measured:
[1] = biological target: recombinant human vascular endothelial growth factor (hVEGF) 121 (human) (UniProt P15692); assay: single point competitive phage-ELISA: residual binding of the Fab-phage to hVEGF after competition with 1 nM hVEGF
[2] = biological target: T1, recombinant human vascular endothelial …; assay: competitive Fab-ELISA, data and fit for the Kd of panel A; x axis printed as LOG([Fab] nM) with ticks 10^-6 to 10^2; hVEGF, isoform not told
[3] = biological target: T1, recombinant human vascular endothelial …; assay: competitive ELISA with soluble Fab (column 'Affinity measured by competitive ELISA'); hVEGF, isoform not told in the legend
[4] = biological target: T1, recombinant human vascular endothelial …; assay: competitive Fab-ELISA (hVEGF)
[5] = biological target: T1, recombinant human vascular endothelial …; assay: single point competitive phage-ELISA: residual binding of the Fab-phage to hVEGF after competition with 1 nM hVEGF

Row | Binder | Residual binding of competitive phage-ELISA 1nM [1] [%] | IC50 (read off the curve) [2] [pM] | Kd [3] [pM] | Kd [4] [pM] | Residual binding of competitive phage-ELISA 1nM [5] [%]
1 | FF0117-A10 (Fab, V domains shown) VH: EVQLVESGGGLVQPGGSLRLSCAASGFDLFHYSIHWVRQAPGKGLEWVAYIYPSYGYTYYADSVKGRFTISADTSKNTAYLQMNSLRAEDTAVYYCARHAWYYGWALDYWGQGTLVTVSS VL: DIQMTQSPSSLSASVGDRVTITCRASQSVSSAVAWYQQKPGKAPKLLIYSASSLYSGVPSRFSGSRSGTDFTLTISSLQPEDFATYYCQQRGWYLFTFGQGTKVEIK | 7 | – | – | – | –
2 | FF0158-C4 (Fab, V domains shown, Second generation Fab, Fab-phage in the single point assay; also called FF0158-C4 (2)) VH: EVQLVESGGGLVQPGGSLRLSCAASGFNLYYYSIHWVRQAPGKGLEWVAYIYPSYGYTYYADSVKGRFTISADTSKNTAYLQMNSLRAEDTAVYYCARHAWYSGWAMDYWGQGTLVTVSS VL: DIQMTQSPSSLSASVGDRVTITCRASQSVSSAVAWYQQKPGKAPKLLIYSASSLYSGVPSRFSGSRSGTDFTLTISSLQPEDFATYYCQQRGWYLFTFGQGTKVEIK | – | ~100 | 150 | – | –
3 | FF0117-A8 (Fab, V domains shown, fourth generation Fab from the library based on FF0188-H5) VH: EVQLVESGGGLVQPGGSLRLSCAASGFDLFHYSIHWVRQAPGKGLEWVAYIYPSYGYTYYADSVKGRFTISADTSKNTAYLQMNSLRAEDTAVYYCARHAWYSGWALDYWGQGTLVTVSS VL: DIQMTQSPSSLSASVGDRVTITCRASQSVSSAVAWYQQKPGKAPKLLIYSASSLYSGVPSRFSGSRSGTDFTLTISSLQPEDFATYYCQQRGWYLFTFGQGTKVEIK | – | – | – | 130 | 17
4 | FF0117-A3 (Fab, V domains shown, fourth generation Fab from the library based on FF0188-H5) VH: EVQLVESGGGLVQPGGSLRLSCAASGFDLFHYSIHWVRQAPGKGLEWVAYIYPSYGYTYYADSVKGRFTISADTSKNTAYLQMNSLRAEDTAVYYCARHAWYFGWALDYWGQGTLVTVSS VL: DIQMTQSPSSLSASVGDRVTITCRASQSVSSAVAWYQQKPGKAPKLLIYSASSLYSGVPSRFSGSRSGTDFTLTISSLQPEDFATYYCQQRGWYLFTFGQGTKVEIK | – | – | – | 60 | 7
5 | FF0117-A11 (Fab, V domains shown, fourth generation Fab from the library based on FF0188-H5) VH: EVQLVESGGGLVQPGGSLRLSCAASGFDLFHYSIHWVRQAPGKGLEWVAYIYPSYGYTYYADSVKGRFTISADTSKNTAYLQMNSLRAEDTAVYYCARHAWYWGWALDYWGQGTLVTVSS VL: DIQMTQSPSSLSASVGDRVTITCRASQSVSSAVAWYQQKPGKAPKLLIYSASSLYSGVPSRFSGSRSGTDFTLTISSLQPEDFATYYCQQRGWYLFTFGQGTKVEIK | – | – | – | 30 | 5
6 | FF0188-B10 (Fab, V domains shown, third generation Fab from libraries based on FF0158-C4; also called FF01088-B10) VH: EVQLVESGGGLVQPGGSLRLSCAASGFDLFHYSIHWVRQAPGKGLEWVAYIYPSYGYTYYADSVKGRFTISADTSKNTAYLQMNSLRAEDTAVYYCARHAWYSGWAMDYWGQGTLVTVSS VL: DIQMTQSPSSLSASVGDRVTITCRASQSVSSAVAWYQQKPGKAPKLLIYSASSLYSGVPSRFSGSRSGTDFTLTISSLQPEDFATYYCQQRGWYLFTFGQGTKVEIK | – | ~400 | 410 | – | –
7 | FF0188-H5 (Fab, V domains shown, third generation Fab, parent of the FF0117 library; also called FF0188-H5(2)) VH: EVQLVESGGGLVQPGGSLRLSCAASGFDLFHYSIHWVRQAPGKGLEWVAYIYPSYGYTYYADSVKGRFTISADTSKNTAYLQMNSLRAEDTAVYYCARHAWYSGWAMDYWGQGTLVTVSS VL: DIQMTQSPSSLSASVGDRVTITCRASQSVSSAVAWYQQKPGKAPKLLIYSASSLYSGVPSRFSGSRSGTDFTLTISSLQPEDFATYYCQQRGWYLFTFGQGTKVEIK | – | ~400 | 450 | 400 | –
